US20070167369A1, “Novel use of isolated polypeptide comprising four FAS-1 domains, EM1 domain and RGD motif” (KYUNGPOOK NATIONAL UNIVERSITY INDUSTRY-ACADEMIC COOPERATION …, priority 2004, published 2007)

Molecular target: αvβ3 integrin (human) (UniProt P06756)
Assay: cell-based or functional assay

αvβ3 integrin (human), sequence (P06756 31-1048, chain 1 of 2): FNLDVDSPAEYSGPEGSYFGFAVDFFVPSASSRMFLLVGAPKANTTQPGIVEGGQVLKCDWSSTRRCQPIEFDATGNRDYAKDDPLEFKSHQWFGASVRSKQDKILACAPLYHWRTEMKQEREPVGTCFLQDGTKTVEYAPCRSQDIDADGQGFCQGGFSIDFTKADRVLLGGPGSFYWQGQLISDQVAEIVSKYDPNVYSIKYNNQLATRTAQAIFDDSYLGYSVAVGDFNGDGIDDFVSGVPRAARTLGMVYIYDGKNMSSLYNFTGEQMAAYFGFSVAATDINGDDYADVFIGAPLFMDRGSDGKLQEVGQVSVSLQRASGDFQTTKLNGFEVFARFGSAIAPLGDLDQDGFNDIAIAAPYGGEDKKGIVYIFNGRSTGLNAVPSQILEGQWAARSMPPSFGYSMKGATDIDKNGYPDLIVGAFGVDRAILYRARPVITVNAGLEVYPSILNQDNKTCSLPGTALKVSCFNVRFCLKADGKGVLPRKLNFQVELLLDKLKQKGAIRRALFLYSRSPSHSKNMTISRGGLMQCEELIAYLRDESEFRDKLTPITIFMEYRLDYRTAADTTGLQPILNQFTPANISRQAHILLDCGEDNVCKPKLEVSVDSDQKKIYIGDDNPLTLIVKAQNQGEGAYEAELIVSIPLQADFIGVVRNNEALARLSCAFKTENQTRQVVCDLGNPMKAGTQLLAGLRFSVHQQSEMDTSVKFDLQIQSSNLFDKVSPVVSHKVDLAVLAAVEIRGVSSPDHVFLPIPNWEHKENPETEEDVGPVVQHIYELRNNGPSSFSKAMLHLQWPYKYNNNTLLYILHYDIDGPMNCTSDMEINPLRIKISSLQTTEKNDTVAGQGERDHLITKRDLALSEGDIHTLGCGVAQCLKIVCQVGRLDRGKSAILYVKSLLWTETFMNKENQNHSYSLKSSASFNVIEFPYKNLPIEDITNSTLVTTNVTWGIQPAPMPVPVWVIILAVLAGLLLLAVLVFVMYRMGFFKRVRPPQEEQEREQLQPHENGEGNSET
αvβ3 integrin (human), sequence (P05106 27-788, chain 2 of 2, further chain): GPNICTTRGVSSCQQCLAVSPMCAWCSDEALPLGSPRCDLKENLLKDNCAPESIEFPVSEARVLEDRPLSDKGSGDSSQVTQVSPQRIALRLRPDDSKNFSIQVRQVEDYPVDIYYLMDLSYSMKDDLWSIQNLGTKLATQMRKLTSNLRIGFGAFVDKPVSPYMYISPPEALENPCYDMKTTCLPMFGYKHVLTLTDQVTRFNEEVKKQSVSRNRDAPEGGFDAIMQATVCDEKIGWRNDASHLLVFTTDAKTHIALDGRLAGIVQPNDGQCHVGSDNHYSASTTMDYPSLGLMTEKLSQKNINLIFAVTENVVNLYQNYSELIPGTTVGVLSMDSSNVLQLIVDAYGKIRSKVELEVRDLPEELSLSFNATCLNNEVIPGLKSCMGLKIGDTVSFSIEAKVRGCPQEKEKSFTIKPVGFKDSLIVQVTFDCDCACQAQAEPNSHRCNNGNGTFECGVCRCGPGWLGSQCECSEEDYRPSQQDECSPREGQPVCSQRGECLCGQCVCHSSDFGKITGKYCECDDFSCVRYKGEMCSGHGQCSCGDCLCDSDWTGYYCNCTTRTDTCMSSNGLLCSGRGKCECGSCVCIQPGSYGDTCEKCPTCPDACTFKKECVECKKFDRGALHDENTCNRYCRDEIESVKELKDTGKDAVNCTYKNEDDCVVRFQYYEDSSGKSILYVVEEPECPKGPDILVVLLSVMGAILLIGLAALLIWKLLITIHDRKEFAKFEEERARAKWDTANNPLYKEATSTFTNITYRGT

70%-inhibition of tube formation (HUVECs on Matrigel): 5 µM
half-inhibition of migration toward vitronectin (HUVECs, transwell): 5 µM
Substance: Regenin (regenin protein that expresses four of the fourth fas-1 domains of βig-h3)
